From article PMC3404105

Columns and labels:
[1] = target: Src family kinase 1 (SFK1) (Lytechinus pictus (endogenous in eggs and egg extract)); assay: FRET or BRET; FRET by single-photon multi-frequency domain FLIM; cell-free assay, demembranated sperm nuclei decondensed in fertilised egg extract (S10) with ATP-GS, no GTP; fixed, labelled with anti-PLCγ-OG488 (donor) and anti-SFK1-Alexa 546 (acceptor)
[2] = target: Src family kinase 1 (SFK1) (Lytechinus pictus (endogenous in eggs and egg extract)); assay: FRET or BRET; time-resolved FRET by two-photon time-domain FLIM; unfertilised L. pictus eggs (T0), fixed, labelled with anti-PLCγ-OG488 (donor) and anti-SFK1-Cy5 (acceptor); FRET efficiency from donor lifetime
[3] = target: Src family kinase 1 (SFK1) (Lytechinus pictus (endogenous in eggs and egg extract)); assay: FRET or BRET; time-resolved FRET by two-photon time-domain FLIM; L. pictus eggs three minutes post-fertilisation (T+3), fixed, labelled with anti-PLCγ-OG488 (donor) and anti-SFK1-Cy5 (acceptor); ROI whole egg or male pronucleus

phospholipase Cγ (PLCγ) (enzyme)
FRET efficiency [1]: 5.7%
FRET efficiency % (egg ROI) [2]: 18.9%
FRET efficiency % (MPN ROI) [3]: 4.8%
FRET efficiency % (egg ROI) [3]: 5.3%
